This passage reports Ka results from publication PMC9143595.

B1: RBD-1C (CoV2-RBD-1) (ssDNA)
DNA: CAGCACCGACCTTGTGCTTTGGGAGTGCTGGTCCAAGGGCGTTAATGGACA
modifications: 5'-amino-modifier C6
B2: RBD-1CM2 (ssDNA)
DNA: CAGCACCGACCTTGTGCTTTGGGAGTGCTGGTCCAAGGGCCTTGATGGACA
modifications: 5'-amino-modifier C6
B3: RBD-1CM1 (ssDNA)
DNA: CAGCACCGACCTTGTGCTTTGGGAGTGCTGGTCTAAGGGCGTTAATAGACA
modifications: 5'-amino-modifier C6

This series has as its target SARS-CoV-2 spike protein S1 subunit (SARS-CoV-2, UniProt P0DTC2 14-685). The series is described as follows: QCM. The conditions noted are these: protein: commercial.
Consider B1, for which the Ka was 1 10^5 M-1.

Turning to B2, the Ka was 1.2 10^5 M-1.

Consider B3, for which the Ka was 1.2 10^5 M-1.
